Biological target: T1, CD58 (UniProt P19256 29-215, limits assumed)
T1 construct: also called naturally occurring CD58
T1 sequence (looked up): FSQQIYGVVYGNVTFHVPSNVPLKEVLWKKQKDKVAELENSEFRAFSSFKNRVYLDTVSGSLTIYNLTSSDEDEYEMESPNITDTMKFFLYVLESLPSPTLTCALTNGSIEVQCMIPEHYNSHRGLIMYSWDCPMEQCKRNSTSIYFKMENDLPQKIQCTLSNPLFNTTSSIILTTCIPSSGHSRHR
Test: not described (screen of a CSR mutant panel)

- binding result: no binding
B1: CD2 extracellular domain with D111H mutation ("CD2 ECD (D111H)") (receptor)
chain: KEITNALETWGALGQDINLDIPSFQMSDDIDDIKWEKTSDKKKIAQFRKEKETFKEKDTYKLFKNGTLKIKHLKTDDQDIYKVSIYHTKGKNVLEKIFDLKIQERVSKPKISWTCINTTLTCEVMNGTDPELNLYQDGKHLKLSQRVITHKWTTSLSAKFKCTAGNKVSKESSVEPVSCPEKGLD
notes: also called CSR CD2z-D111H mutant; mutant CSR
